Experimental data: IntAct's records for PubMed 11001931

biological target: fhl2_human FHL2 (UniProt Q14192)
Sequence (Q14192 whole entry): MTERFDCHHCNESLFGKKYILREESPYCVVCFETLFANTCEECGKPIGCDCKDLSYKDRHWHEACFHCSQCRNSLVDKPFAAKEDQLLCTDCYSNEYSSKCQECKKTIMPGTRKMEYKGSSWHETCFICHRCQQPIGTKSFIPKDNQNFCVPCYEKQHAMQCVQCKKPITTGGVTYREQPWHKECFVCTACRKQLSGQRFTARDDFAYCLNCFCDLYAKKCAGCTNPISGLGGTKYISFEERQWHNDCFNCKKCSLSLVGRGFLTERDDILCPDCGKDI

Sequence of Presenilin-2 (Homo sapiens), P49810 L274A (P49810 whole entry L274A): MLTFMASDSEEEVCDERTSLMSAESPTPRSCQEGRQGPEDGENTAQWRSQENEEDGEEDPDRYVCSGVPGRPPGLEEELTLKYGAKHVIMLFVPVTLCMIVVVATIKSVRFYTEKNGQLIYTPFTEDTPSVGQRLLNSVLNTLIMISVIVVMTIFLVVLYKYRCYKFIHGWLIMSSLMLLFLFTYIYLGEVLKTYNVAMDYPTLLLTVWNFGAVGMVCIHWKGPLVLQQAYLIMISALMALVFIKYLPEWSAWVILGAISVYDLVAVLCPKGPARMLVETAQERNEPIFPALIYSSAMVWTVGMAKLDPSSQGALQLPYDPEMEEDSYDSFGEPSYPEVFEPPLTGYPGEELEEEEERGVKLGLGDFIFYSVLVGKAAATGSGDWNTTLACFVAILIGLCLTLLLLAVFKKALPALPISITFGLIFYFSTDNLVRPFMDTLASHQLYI
Sequence of Presenilin-2 (Homo sapiens), P49810 L277A (P49810 whole entry L277A): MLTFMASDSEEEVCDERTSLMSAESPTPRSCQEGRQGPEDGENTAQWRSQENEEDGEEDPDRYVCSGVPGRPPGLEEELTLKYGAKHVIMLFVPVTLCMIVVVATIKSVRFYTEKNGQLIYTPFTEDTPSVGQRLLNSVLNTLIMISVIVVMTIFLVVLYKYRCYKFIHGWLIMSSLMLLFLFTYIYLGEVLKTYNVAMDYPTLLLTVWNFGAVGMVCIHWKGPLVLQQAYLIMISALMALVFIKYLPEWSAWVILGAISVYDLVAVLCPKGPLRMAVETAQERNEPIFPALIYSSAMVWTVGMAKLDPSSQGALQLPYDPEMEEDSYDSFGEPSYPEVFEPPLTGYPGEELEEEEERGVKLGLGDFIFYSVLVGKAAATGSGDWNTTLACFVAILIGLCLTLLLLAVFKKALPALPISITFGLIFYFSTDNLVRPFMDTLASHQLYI
Sequence of Presenilin-2 (Homo sapiens), P49810 V278A (P49810 whole entry V278A): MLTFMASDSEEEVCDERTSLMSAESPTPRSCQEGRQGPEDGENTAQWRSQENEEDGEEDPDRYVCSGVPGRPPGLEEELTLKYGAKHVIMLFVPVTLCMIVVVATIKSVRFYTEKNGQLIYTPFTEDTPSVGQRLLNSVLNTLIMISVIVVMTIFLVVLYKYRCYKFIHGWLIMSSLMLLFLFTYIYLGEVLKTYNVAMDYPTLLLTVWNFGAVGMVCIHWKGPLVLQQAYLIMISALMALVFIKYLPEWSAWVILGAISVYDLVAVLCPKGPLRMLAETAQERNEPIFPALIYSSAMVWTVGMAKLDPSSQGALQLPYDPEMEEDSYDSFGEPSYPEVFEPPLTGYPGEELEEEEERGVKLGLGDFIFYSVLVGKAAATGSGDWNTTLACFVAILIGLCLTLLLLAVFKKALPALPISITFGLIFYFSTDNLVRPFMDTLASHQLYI
Sequence of Presenilin-2 (Homo sapiens), P49810 K271A (P49810 whole entry K271A): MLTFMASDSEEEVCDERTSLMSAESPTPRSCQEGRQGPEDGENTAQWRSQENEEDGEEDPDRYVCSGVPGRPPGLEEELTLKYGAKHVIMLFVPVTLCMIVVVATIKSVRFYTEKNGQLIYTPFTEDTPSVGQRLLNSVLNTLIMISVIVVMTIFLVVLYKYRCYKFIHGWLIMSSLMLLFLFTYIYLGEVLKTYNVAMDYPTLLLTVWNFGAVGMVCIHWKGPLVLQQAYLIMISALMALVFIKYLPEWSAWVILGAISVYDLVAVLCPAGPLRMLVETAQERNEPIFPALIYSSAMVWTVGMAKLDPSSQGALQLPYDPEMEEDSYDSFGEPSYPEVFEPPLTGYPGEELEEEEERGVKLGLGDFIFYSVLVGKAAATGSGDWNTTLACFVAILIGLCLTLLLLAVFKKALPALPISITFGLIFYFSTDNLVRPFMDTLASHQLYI
Sequence of Presenilin-2 (Homo sapiens), P49810 M276A (P49810 whole entry M276A): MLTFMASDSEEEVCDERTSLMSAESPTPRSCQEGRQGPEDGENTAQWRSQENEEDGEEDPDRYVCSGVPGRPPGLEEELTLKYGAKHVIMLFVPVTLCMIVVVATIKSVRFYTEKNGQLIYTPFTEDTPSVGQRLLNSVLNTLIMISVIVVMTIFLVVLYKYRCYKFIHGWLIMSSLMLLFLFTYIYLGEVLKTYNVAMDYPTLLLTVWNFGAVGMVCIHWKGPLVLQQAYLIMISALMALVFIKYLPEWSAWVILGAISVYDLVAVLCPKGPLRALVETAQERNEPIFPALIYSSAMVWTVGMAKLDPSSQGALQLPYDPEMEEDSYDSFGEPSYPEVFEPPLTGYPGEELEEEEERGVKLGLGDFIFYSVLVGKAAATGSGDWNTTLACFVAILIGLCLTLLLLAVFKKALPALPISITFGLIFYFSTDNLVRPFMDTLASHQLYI
Sequence of Presenilin-2 (Homo sapiens), P49810 G272A (P49810 whole entry G272A): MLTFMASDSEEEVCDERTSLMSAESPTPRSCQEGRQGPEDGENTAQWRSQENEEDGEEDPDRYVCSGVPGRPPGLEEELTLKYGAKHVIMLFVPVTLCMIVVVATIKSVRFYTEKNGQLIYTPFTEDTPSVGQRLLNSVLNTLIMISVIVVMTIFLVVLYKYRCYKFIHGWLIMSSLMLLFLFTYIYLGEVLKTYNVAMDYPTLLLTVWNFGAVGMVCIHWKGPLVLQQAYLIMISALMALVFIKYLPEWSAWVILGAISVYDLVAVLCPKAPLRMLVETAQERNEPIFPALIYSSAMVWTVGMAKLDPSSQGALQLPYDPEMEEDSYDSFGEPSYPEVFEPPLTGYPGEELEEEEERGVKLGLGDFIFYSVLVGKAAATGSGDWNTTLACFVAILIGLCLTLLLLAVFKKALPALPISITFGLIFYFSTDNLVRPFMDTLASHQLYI
Sequence of Presenilin-2 (Homo sapiens), P49810 E279A (P49810 whole entry E279A): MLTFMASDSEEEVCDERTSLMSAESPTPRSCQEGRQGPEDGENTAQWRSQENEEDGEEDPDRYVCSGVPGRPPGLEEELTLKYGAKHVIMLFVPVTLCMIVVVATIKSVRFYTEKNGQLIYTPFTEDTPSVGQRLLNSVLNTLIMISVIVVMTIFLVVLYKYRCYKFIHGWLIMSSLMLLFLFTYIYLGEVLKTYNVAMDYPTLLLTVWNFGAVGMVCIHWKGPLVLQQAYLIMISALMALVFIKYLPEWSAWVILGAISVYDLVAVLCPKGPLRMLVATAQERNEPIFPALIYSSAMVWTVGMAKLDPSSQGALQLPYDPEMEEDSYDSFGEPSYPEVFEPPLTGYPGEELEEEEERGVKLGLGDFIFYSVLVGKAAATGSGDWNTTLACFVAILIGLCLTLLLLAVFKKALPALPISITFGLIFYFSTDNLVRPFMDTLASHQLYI
Sequence of Presenilin-2 (Homo sapiens), P49810 P273A (P49810 whole entry P273A): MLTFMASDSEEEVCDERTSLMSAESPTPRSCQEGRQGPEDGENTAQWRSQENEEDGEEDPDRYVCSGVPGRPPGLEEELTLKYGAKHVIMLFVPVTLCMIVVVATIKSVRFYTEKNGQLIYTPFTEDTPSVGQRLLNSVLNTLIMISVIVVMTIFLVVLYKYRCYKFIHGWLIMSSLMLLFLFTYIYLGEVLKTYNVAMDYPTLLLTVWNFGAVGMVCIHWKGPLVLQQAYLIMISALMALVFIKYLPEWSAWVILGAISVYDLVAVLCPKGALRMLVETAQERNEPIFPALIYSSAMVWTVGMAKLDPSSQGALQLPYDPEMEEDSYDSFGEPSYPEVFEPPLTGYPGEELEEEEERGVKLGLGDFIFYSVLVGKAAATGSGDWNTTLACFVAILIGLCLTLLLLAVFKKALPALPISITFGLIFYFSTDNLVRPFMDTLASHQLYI
Sequence of Presenilin-2 (Homo sapiens), P49810 P270A (P49810 whole entry P270A): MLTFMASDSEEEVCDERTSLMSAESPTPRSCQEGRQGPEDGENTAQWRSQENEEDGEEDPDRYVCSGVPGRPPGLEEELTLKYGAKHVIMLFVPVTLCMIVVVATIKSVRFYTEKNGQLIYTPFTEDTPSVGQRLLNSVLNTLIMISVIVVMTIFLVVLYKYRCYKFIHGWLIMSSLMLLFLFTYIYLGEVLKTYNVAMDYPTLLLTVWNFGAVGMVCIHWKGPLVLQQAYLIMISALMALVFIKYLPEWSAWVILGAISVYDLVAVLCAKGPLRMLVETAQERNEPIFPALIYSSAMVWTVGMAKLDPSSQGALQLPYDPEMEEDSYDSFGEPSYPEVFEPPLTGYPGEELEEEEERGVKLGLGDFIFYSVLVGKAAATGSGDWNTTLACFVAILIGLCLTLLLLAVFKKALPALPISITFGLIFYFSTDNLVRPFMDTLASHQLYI
Sequence of Presenilin-2 (Homo sapiens), P49810 R275A (P49810 whole entry R275A): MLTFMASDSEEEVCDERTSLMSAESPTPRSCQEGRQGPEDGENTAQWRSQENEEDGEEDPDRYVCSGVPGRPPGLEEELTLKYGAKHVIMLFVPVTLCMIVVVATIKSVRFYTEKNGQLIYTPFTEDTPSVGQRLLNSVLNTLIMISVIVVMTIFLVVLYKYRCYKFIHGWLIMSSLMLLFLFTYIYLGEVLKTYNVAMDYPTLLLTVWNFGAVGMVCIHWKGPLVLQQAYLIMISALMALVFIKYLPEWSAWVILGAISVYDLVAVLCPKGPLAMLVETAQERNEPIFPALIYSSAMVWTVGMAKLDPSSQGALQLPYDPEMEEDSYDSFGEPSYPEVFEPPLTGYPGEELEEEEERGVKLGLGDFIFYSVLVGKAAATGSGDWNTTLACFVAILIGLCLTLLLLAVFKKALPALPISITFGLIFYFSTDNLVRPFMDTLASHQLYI

Substance | effect of a mutation on the interaction
Presenilin-2 (Homo sapiens), P49810 E279A | decreasing interaction strength
Presenilin-2 (Homo sapiens), P49810 G272A | decreasing interaction strength
Presenilin-2 (Homo sapiens), P49810 K271A | with no effect
Presenilin-2 (Homo sapiens), P49810 L274A | decreasing interaction strength
Presenilin-2 (Homo sapiens), P49810 L277A | decreasing interaction strength
Presenilin-2 (Homo sapiens), P49810 M276A | decreasing interaction strength
Presenilin-2 (Homo sapiens), P49810 P270A | decreasing interaction strength
Presenilin-2 (Homo sapiens), P49810 P273A | decreasing interaction strength
Presenilin-2 (Homo sapiens), P49810 R275A | disrupting interaction strength
Presenilin-2 (Homo sapiens), P49810 V278A | decreasing interaction strength
